These results are taken from publication doi:10.1101/2023.05.08.539930.

The data set addresses MSH2;MSH3 (Homo sapiens;Homo sapiens, UniProt P43246;P20585 1-934;1-1137, |). Kind of data set: FRET.

B1: 70 bp (CAG)1 FRET DNA (dsDNA)
DNA 1: CACACGTTCCGAGATATCCTAGCAAGTGATCAGCGTCTATGTAGCTCAAGAGTTCGACTCAGCCTACACCGAG
DNA 2: CTCGGTGTAGGCTGAGTCGAACTCTTGAGCTACATAGACGATCACTTGCTAGGATATCTCGGAACGTGTG
modifications: 5' digoxigenin on both strands, anti-digoxigenin Fab end-blocked
For the molecule B1, the binding result is recorded as “binds”.

B2: 70 bp (CAG)2 FRET DNA (dsDNA)
DNA 1: CACACGTTCCGAGATATCCTAGCAAGTGATCAGCAGCGTCTATGTAGCTCAAGAGTTCGACTCAGCCTACACCGAG
DNA 2: CTCGGTGTAGGCTGAGTCGAACTCTTGAGCTACATAGACGATCACTTGCTAGGATATCTCGGAACGTGTG
modifications: 5' digoxigenin on both strands, anti-digoxigenin Fab end-blocked
For B2, the binding result is listed as “binds”.

B3: 70 bp (CAG)4 FRET DNA (dsDNA)
DNA 1: CACACGTTCCGAGATATCCTAGCAAGTGATCAGCAGCAGCAGCGTCTATGTAGCTCAAGAGTTCGACTCAGCCTACACCGAG
DNA 2: CTCGGTGTAGGCTGAGTCGAACTCTTGAGCTACATAGACGATCACTTGCTAGGATATCTCGGAACGTGTG
modifications: 5' digoxigenin on both strands, anti-digoxigenin Fab end-blocked
Consider B3, for which the binding result was “binds”.
